Patent US20250076311A1 (Chugai, published 2025)
Where a chain is given by its changes, count along the chain named.

Tests used:
[1] = target: T1, cynomolgus monkey FcγRIIa2 extracellular domain, His-tagged (cynomolgus monkey); assay: SPR Biacore, antibody captured, FcgR analyte
T1 construct: also called cyno FcγRIIa2; cynoFcgRIIa2; not shown: C-terminal His-tag
T1 chain: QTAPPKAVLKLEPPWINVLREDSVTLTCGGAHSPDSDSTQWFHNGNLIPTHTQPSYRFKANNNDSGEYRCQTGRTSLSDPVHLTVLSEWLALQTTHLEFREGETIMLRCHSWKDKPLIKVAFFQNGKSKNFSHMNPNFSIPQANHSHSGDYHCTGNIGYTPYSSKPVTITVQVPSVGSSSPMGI

[2] = target: T2, cynomolgus monkey FcγRIIIaS extracellular domain with C-terminal His-tag (cynomolgus monkey, UniProt A3RFZ7 21-206 (rhesus entry)); assay: SPR Biacore, antibody captured, FcgR analyte
T2 construct: also called cyno FcgRIIIaS; cynoFcγRIIIaS; not shown: His-tag added to C-terminus

[3] = target: T3, cynomolgus monkey FcγRIIa1 extracellular domain with C-terminal His-tag (cynomolgus monkey); assay: SPR Biacore, antibody captured, FcgR analyte
T3 construct: also called cyno FcgRIIa1; cynoFcγRIIa1; not shown: His-tag added to C-terminus
T3 chain: T1 chain with T95P, A121T, K127I, S128A, N130K, N135D, Q142R

[4] = target: T4, human FcγRIIaR extracellular domain with C-terminal His-tag (human, UniProt P12318 34-217); assay: SPR (Biacore), KD of SG1 divided by KD of variant
T4 construct: also called human FcgRIIaR; FcγRIIa (type R)
T4 chain: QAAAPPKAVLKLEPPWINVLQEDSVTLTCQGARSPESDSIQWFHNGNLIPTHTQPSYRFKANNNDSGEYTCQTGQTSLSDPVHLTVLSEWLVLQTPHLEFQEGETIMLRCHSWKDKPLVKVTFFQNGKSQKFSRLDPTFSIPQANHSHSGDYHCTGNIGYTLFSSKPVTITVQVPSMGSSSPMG
Procedure: (§1) The kinetic analysis of interactions between these antibodies and FcγR was carried out using BIACORE® T200 or BIACORE® 4000 (GE Healthcare). HBS-EP+ (GE Healthcare) was used as the running buffer, and the measurement temperature was set to 25° C. […] After the measurement, the antibody captured on the chip was washed off by allowing reaction with 10 mM glycine-HCl, pH1.5 and 25 mM NaOH so that the chip was regenerated and used repeatedly. The sensorgrams obtained as measurement results were analyzed by the 1:1 Langmuir binding model using the BIACORE® Evaluation Software to calculate the binding rate constant ka (L/mol/s) and dissociation rate constant kd (1/s), and the dissociation constant KD (mol/L) was calculated from these values. […] Regarding such interactions, KD values were calculated using the following 1:1 binding model described in BIACORE® T100 Software Handbook BR1006-48 Edition AE.

[5] = target: T5, cynomolgus monkey FcγRIIb extracellular domain with C-terminal His-tag (cynomolgus monkey); assay: SPR (Biacore), KD of SG1 / KD of variant
T5 construct: also called cyno FcgRIIb; cynoFcγRIIb
T5 chain: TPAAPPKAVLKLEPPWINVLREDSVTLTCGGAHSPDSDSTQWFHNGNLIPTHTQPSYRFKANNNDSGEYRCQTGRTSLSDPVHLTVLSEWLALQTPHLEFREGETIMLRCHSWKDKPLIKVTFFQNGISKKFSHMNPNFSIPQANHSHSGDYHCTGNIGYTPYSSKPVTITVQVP
Procedure: as §1

[6] = target: T6, human FcγRIIaR extracellular domain with C-terminal His-tag (human, UniProt P12318 34-217); assay: SPR (Biacore), antibody captured, FcgR analyte
T6 construct: also called human FcgRIIaR; FcγRIIa (type R)
T6 chain: T4 chain
Procedure: as §1

[7] = target: T7, cynomolgus monkey FcγRIIa3 extracellular domain with C-terminal His-tag (cynomolgus monkey); assay: SPR (Biacore), KD of SG1 / KD of variant
T7 construct: also called cyno FcgRIIa3; cynoFcγRIIa3
T7 chain: T1 chain with K127I, N130K, H133P, Q142R
Procedure: as §1

[8] = target: T8, cynomolgus monkey FcγRIIa2 extracellular domain with C-terminal His-tag (cynomolgus monkey); assay: SPR (Biacore), KD of SG1 / KD of variant
T8 construct: also called cyno FcgRIIa2; cynoFcγRIIa2
T8 chain: T1 chain
Procedure: as §1

[9] = target: T9, human FcγRIIb extracellular domain with C-terminal His-tag (human, UniProt P31994 43-217); assay: SPR Biacore, antibody captured, FcgR analyte
T9 construct: also called human FcgRIIb; not shown: His-tag added to C-terminus
T9 sequence: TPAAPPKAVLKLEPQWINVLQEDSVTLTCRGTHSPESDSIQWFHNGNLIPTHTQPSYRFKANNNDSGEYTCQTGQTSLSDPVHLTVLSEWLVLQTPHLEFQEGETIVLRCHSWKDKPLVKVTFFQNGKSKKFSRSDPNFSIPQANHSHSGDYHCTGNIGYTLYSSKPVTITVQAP

[10] = target: T10, cynomolgus monkey FcγRIIa3 extracellular domain with C-terminal His-tag (cynomolgus monkey); assay: SPR Biacore, antibody captured, FcgR analyte
T10 construct: also called cyno FcgRIIa3; cynoFcγRIIa3; not shown: His-tag added to C-terminus
T10 chain: T1 chain with K127I, N130K, H133P, Q142R

[11] = target: T11, cynomolgus monkey FcγRIIb extracellular domain with C-terminal His-tag (cynomolgus monkey); assay: SPR Biacore, antibody captured, FcgR analyte
T11 construct: also called cyno FcgRIIb; cynoFcγRIIb; not shown: His-tag added to C-terminus
T11 chain: T5 chain

[12] = target: T12, human FcγRIIb extracellular domain, His-tagged (human, UniProt P31994 43-217); assay: SPR Biacore, KD(SG1)/KD(variant)
T12 construct: also called FcgRIIb (human); not shown: C-terminal His-tag
T12 sequence: T9 sequence
Procedure: as §1

[13] = target: T13, human FcγRIIaH extracellular domain with C-terminal His-tag (human, UniProt P12318 34-217); assay: SPR Biacore, antibody captured, FcgR analyte
T13 construct: also called human FcgRIIaH; FcγRIIa (type H); not shown: His-tag added to C-terminus
T13 sequence: T4 chain with R134H

B1: M103205H795-MY006/M103202L889-SK1 (antibody, human IgG1, kappa, name in EU numbering)
heavy: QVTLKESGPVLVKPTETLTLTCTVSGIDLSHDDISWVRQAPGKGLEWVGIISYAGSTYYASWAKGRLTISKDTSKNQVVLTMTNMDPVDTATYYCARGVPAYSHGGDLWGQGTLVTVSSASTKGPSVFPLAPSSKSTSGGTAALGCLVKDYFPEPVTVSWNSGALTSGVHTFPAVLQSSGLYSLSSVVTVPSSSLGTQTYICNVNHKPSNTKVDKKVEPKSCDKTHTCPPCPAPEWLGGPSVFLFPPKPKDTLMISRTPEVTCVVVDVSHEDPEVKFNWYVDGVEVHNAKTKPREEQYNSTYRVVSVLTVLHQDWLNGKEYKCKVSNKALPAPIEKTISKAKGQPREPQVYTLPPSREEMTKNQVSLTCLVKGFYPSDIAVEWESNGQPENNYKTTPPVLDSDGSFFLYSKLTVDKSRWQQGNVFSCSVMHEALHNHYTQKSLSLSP
light: DIVMTQSPATLSLSPGERATLSCTSSQSVYHANWLSWFQQKPGQPPKLLIYWASTLAYGVPSRFSGSGSGTDFTLTISSLQPEDAATYYCAGGYGGGRYAFGQGTKVEIKRTVAAPSVFIFPPSDEQLKSGTASVVCLLNNFYPREAKVQWKVDNALQSGNSQESVTEQDSKDSTYSLSSTLTLSKADYEKHKVYACEVTHQGLSSPVTKSFNRGEC
notes: Substitution introduced into M103205H795-SG1; EU numbering
**Q.** Which Kd [1] does the source give for B1 here?
**A.** 1900 nM

B2: M103205H795-MY202/M103202L889-SK1 (antibody, human IgG1, kappa, name in EU numbering)
heavy: QVTLKESGPVLVKPTETLTLTCTVSGIDLSHDDISWVRQAPGKGLEWVGIISYAGSTYYASWAKGRLTISKDTSKNQVVLTMTNMDPVDTATYYCARGVPAYSHGGDLWGQGTLVTVSSASTKGPSVFPLAPSSKSTSGGTAALGCLVKDYFPEPVTVSWNSGALTSGVHTFPAVLQSSGLYSLSSVVTVPSSSLGTQTYICNVNHKPSNTKVDKKVEPKSCDKTHTCPPCPAPELLNGPVVFLFPPKPKDTLMISRTPEVTCVVVDVSDEDPEVKFNWYVDGVEVHNAKTKPREEQYNSTYRVVSVLTVLHQDWLNGKEYKCKVSNKALPKPIEKTISKAKGQPREPQVYTLPPSREEMTKNQVSLTCLVKGFYPSDIAVEWESNGQPENNYKTTPPVLDSDGSFFLYSKLTVDKSRWQQGNVFSCSVMHEALHNHYTQKSLSLSP
light: B1 light
notes: substitutions in EU numbering, introduced into M103205H795-SG1
**Q.** Which results are given for B2?
**A.** KD fold (SG1 = 1) [2]: 0.09 fold; KD fold (SG1 = 1) [3]: 3.7 fold

B3: M103205H795-MY525 / M103202L889-SK1 (antibody, human IgG1, kappa, name in EU numbering)
heavy: B2 heavy with A233T, N238T
light: B1 light
**Q.** With B3 as the binder, how does the “KD fold (SG1 = 1)” value [4] read?
**A.** 6.9 fold

B4: M103205H795-MY467/M103202L889-SK1 (antibody, human IgG1, kappa)
heavy: B2 heavy with A233M, N238T, V241S
light: B1 light
notes: Substitutions in EU numbering on SG1
**Q.** B4 was tested. Which “KD fold (SG1 = 1)” value [5] did it give?
**A.** 3.5 fold

B5: M103205H795-MY442/M103202L889-SK1 (antibody, human IgG1, kappa)
heavy: B2 heavy with P234D, N238T, V241S
light: B1 light
notes: as for B4
**Q.** How did the “KD fold (SG1 = 1)” value [5] turn out when B5 was run?
**A.** 1 fold

B6: M103205H795-MY451/M103202L889-SK1 (antibody, human IgG1, kappa)
heavy: B2 heavy with P234N, N238T, V241S
light: B1 light
notes: as for B4
**Q.** B6 was tested. Which Kd [6] did it give?
**A.** 640 nM

**Q.** And the “KD fold (SG1 = 1)” value [7]?
**A.** 2.5 fold

B7: M103205H795-MY445/M103202L889-SK1 (antibody, human IgG1, kappa)
heavy: B2 heavy with P234G, N238T, V241S
light: B1 light
notes: as for B4
**Q.** Which results are given for B7?
**A.** Kd [6]: 1100 nM; KD fold (SG1 = 1) [8]: 0.5 fold

B8: M103205H795-MY173/M103202L889-SK1 (antibody, human IgG1, kappa, name in EU numbering)
heavy: B2 heavy with V241S, D270E, K332A, P398H
light: B1 light
notes: EU numbering
**Q.** B8 was tested. Which Kd [9] did it give?
**A.** 1000 nM

**Q.** And the “KD fold (SG1 = 1)” value [2]?
**A.** 0.12 fold

**Q.** What about the Kd [2] of the same binder?
**A.** 3.1 µM

**Q.** And the Kd [10]?
**A.** 8000 nM

**Q.** And the “KD fold (SG1 = 1)” value [3]?
**A.** 1.5 fold

**Q.** And the Kd [11]?
**A.** 730 nM

B9: M103205H795-MY041/M103202L889-SK1 (antibody, human IgG1, kappa, name in EU numbering)
heavy: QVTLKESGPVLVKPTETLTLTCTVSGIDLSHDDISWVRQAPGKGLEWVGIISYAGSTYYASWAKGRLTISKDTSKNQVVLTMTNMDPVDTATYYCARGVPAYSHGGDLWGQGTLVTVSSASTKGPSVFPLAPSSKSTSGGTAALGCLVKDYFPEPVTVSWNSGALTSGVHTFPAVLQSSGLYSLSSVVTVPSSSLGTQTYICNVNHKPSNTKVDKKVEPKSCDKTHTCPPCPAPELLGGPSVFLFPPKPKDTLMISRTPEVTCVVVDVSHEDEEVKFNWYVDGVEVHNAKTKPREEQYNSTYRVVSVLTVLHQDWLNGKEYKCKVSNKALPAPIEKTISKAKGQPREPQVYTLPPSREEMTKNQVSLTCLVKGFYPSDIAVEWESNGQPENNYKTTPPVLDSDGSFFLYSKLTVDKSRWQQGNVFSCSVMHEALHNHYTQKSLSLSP
light: B1 light
notes: as for B1
**Q.** For B9, which “KD fold (SG1 = 1)” value [12] is on record?
**A.** 1.5 fold

B10: M103205H795-MY465/M103202L889-SK1 (antibody)
heavy: B2 heavy with A233K, N238T, V241S
light: B1 light
notes: as for B4
**Q.** B10 was tested. Which “KD fold (SG1 = 1)” value [5] did it give?
**A.** 2.5 fold

**Q.** What about the “KD fold (SG1 = 1)” value [8] of the same binder?
**A.** 1.8 fold

**Q.** What about the “KD fold (SG1 = 1)” value [7] of the same binder?
**A.** 3.5 fold

B11: M103205H795-MY169/M103202L889-SK1 (antibody, human IgG1, kappa, name in EU numbering)
heavy: B2 heavy with V241S, D270E, K332A, P398D
light: B1 light
notes: EU numbering
**Q.** For B11, which “KD fold (SG1 = 1)” value [2] is on record?
**A.** 0.1 fold

**Q.** What about the Kd [2] of the same binder?
**A.** 3.5 µM

**Q.** What about the Kd [3] of the same binder?
**A.** 23 µM

B12: M103205H795-MY180/M103202L889-SK1 (antibody, human IgG1, kappa, name in EU numbering)
heavy: B2 heavy with V241S, D270E, K332A, P398S
light: B1 light
notes: EU numbering
**Q.** For B12, which Kd [9] is on record?
**A.** 1900 nM

**Q.** What about the “KD fold (SG1 = 1)” value [2] of the same binder?
**A.** 0.17 fold

**Q.** And the Kd [2]?
**A.** 3.1 µM

**Q.** What about the Kd [10] of the same binder?
**A.** 1200 nM

**Q.** And the “KD fold (SG1 = 1)” value [3]?
**A.** 1.7 fold

B13: M103205H795-MY170/M103202L889-SK1 (antibody, human IgG1, kappa, name in EU numbering)
heavy: B2 heavy with V241S, D270E, K332A, P398E
light: B1 light
notes: EU numbering
**Q.** Which results are given for B13?
**A.** KD fold (SG1 = 1) [9]: 2.5 fold; KD fold (SG1 = 1) [2]: 0.17 fold; Kd [2]: 7.9 µM; Kd [10]: 1200 nM; Kd [3]: 23 µM

B14: M103205H795-MY198/M103202L889-SK1 (antibody, human IgG1, kappa, name in EU numbering)
heavy: B2 heavy with P398M
light: B1 light
notes: as for B2
**Q.** Which “KD fold (SG1 = 1)” value [13] does the source give for B14 here?
**A.** 1.2 fold

**Q.** And the “KD fold (SG1 = 1)” value [2]?
**A.** 0.15 fold

**Q.** And the “KD fold (SG1 = 1)” value [3]?
**A.** 7.5 fold
